From the RNAGym collection of RNA variant scans (doi:10.1073/pnas.2313332121)

B1: TPR t1 (parent)
chain: GACCAAUCUGCCCUCAGAGCUCGAGAACAUCUUCGGAUGCAGAGGAGGCAGGCUUCGGUGGCGCGAUAGCGCCAACGUCCUCAACCUCCAAUGCAUCCCACCACAUGAUGAUGCCUGAAGAGCCUUGGUUUUUUG

Variants of: B1
Test: polymerase ribozyme fitness, log enrichment relative to wild type (log ratio); higher = more active; in vitro selection for triplet polymerase activity
Procedure, shortened: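 Mutant libraries for each subunit of a heterodimeric triplet polymerase ribozyme were made by PCR and then transcribed. Each library underwent one round of in vitro selection in triplicate: annealing with a biotinylated primer, the partner subunit and triplets, frozen incubation at −7 °C, gel excision of extended constructs, streptavidin-bead capture and RT-PCR. Input and output libraries were Illumina-sequenced, and only genotypes with ≥10 input reads and ≥1 read per output were kept. Fitness is the logarithm, base 2, of genotype enrichment over wild-type enrichment, computed from inverse-variance-weighted replicate averages.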

Row | Variant | polymerase ribozyme fitness (log ratio)
1 | A5U A90G C123U | 0.65
2 | A6C A29U G52U C53U G120A C123U | -2.96
3 | A5U U7A A91G C114A | -1.75
4 | A5G C72A C73U U81G U106G A118U A121C | -5.16
5 | A5C U129A | -0.548
6 | A5G C8U G63U C70A C86G | 0.268
7 | A5G G69C | -1.4
8 | A5G G69U | 0.484
9 | A5G G69A | -2.1
10 | A5U C11G | -0.477
11 | A5U C11U | -1.46
12 | A5G C8G G52C C79U | 0.0143
13 | A6C C88U | -0.228
14 | A5U C12A C22G A27C U38G A111U | -2.81
15 | A5U C64G C124U | -6.6
16 | A5U U9A U32C A37U C49U G69A G93A | -4.95
17 | A5G C49U C70U C72U A121U U133G | 0.312
18 | A5G C12G C34U C72A A95C | -5.52
19 | A5U A41C G77A G110A A121C U130A | -5.22
20 | A5G C12G G71C A121G | 0.0981
21 | A5G G42U C80A | -5.11
22 | A6C C12A G52U G61A | -1.1
23 | A5U U7A C15U C76A | -1.76
24 | A5U A6C C8G G47A G113C | -2.19

Row | Variant | polymerase ribozyme fitness (log ratio)
25 | A5U G39A C73A U78C | -0.828
26 | A5G C12U G39U | -0.29
27 | A5G G48C | -1.69
28 | A5U A43G G44A G52C C124U G128U | -4.6
29 | A5U A43G C124A | -0.815
30 | A5U A46U U59C A90U C123A | -2.16
31 | A5U C13G G44C | -2.74
32 | A5U A18C C124U | -0.683
33 | A5U A37G | 0.0705
34 | A5U A6G A46C C115G | -2.4
35 | A5G | -0.0211
36 | A5U | -0.135
37 | A5G C13A C53U U59G | -1.69
38 | A6C C28G U30A G51U G69A C70A C115A G128C | -6.73
39 | A5U C28U C62G | -5.59
40 | A5G G45A C49A G69U G93A U130G U131A | -2.39
41 | A5U C11A G63A G93U | -2.91
42 | A5G C82G | -0.685
43 | A5U C8U C101G | -1.15
44 | A5U C8U A46G G60U A66U | -1.11
45 | A5G C13G A18C G35U A75G C79U A119G C123G U130C | -7.55
46 | A6C C115G | -2.07
47 | A5G U106A | 0.687
48 | A5G C53A U59A G77U C94U | -0.908

Row | Variant | polymerase ribozyme fitness (log ratio)
49 | A6C A43G G63U G69A G117C | -5.96
50 | A6C A108G C115U | -5
51 | A5U U14G A41U G60C C115U | -4.57
52 | A5U C12U G61A | 0.0113
53 | A5G A6C | -0.0257
54 | A5U C62U | -0.31
55 | A5G A18U A103U C114A G120U | -3.91
56 | A5U C13G C89U U92A G120A | -2.77
57 | A5U A74C G122A | -1.42
58 | A5G A50U G63A G117A | -6.03
59 | A6C C72U C73U C98G C115A U116G | -7.45
60 | A5G U38G C114A | -2.6
61 | A5U U81G G93A U106A C123U | -3.99
62 | A5U A46U C73A A90U C123A | -1.41
63 | A5G C49A C115U U132A | -0.466
64 | A5U G44A C56U G117A | -3.69
65 | A5G A6U G61C A66U | -1.7
66 | A5U A6U C20U G69A U81A G113A | -2.02
67 | A6C A68G | -3.13
68 | A5U C8U C11U G61A G113A C124G | -0.703
69 | A5U C89G | -1.4
70 | A5U G122A | -0.551
71 | A6C A105C U130C | -1.78
72 | A5G U81A | -0.807

Row | Variant | polymerase ribozyme fitness (log ratio)
73 | A5U G113U C124A | -3.25
74 | A6C A50U G58A G60C C70U | -3.42
75 | A5G C12A C72G U87A C115G U131C | -3.53
76 | A5U C49G C70G | -4.62
77 | A5U C49G C70A | -3.06
78 | A5U C53A C88A C98A U109A | -5.9
79 | A5U G113C | -2.11
80 | A5U G113A | -1.04
81 | A5G G48U G61A U81A C82A G127C | -1.97
82 | A5U U21G U55C G61U C79U C114A U126A | -1.56
83 | A6C C12U G48C U78G G110C | -4.8
84 | A5G A18G C79A U81C C89U G93U G120C C124U | -6.53
85 | A5U C11G A91G | -0.601
86 | A5U A6U U7G C8U G36A A121C | 0.985
87 | A5U C20A G69U C98G C123G | -2.75
88 | A5G A83G G110A | -2.14
89 | A6C A29U C49A A66C G71C A119U | -4.4
90 | A6C C12U U38G C80U | -1.42
91 | A5U U14C A18U G45U G71U A121C | -5.73
92 | A5G A26C C72U U87A G120U U130A | -3.99
93 | A5G U9A A27G C53U U126A U133A | -3.09
94 | A5C U112A | 1.05
95 | A5C U112C | 0.655
96 | A5G G17U A18G A100C A121G C124G | -3.51

Row | Variant | polymerase ribozyme fitness (log ratio)
97 | A6C A29U G45A G113U | -4.91
98 | A5G G60C G69A | -5.79
99 | A5G C13U A46U C56A | -0.813
100 | A5U C12U G71U | -0.82
101 | A5G A18G G44C G48C U55C U59G G117U | -5.35
102 | A5U G110C | -3.71
103 | A5G C13G G51A U112C | -1.39
104 | A6C A50C C70A G127U | -4.88
105 | A5G C80A | -2.34
106 | A5U C8G C88U C97U G113C | -1.99
107 | A5U C8G G19A A43U U54A C70G | -4.96
108 | A5U U33G C76A C80A A83C G113U A119U | -6.4
109 | A5U U9G G48A U78A | -0.963
110 | A5U U92G C104U | -2.44
111 | A5U C64U G117A | -2.55
112 | A5G G17A | -2.47
113 | A5U C72U C114U | -2.7
114 | A5U A95C | -1.24
115 | A6C C98A | -4.73
116 | A6C A105G U112C G127A | -2.69
117 | A5G A111G C123A G128U | -2.99
118 | A6C C8A C49A C56U | -0.31
119 | A5U A103C G110A G113C | -5.8
120 | A6C C101A U132A | -1.42

Row | Variant | polymerase ribozyme fitness (log ratio)
121 | A6C C8A A66U C85U | -1.77
122 | A5U C28U C72A U78C | -1.78
123 | A5U C73G C94G | -2.07
124 | A5G G61A U78A A84C U129A | -1.36
125 | A6C C8A U32C A84U A90G G110C C114U | -5.68
126 | A5U U7G A43U G71U A83C | -2.36
127 | A5U C11A G63U G93U | -3.79
128 | A6C A18U A50C G77U U87A | -3.65
129 | A5G U32C C70U G93A | -2.13
130 | A5U U7C C8U C11U C86A | -1.5
131 | A5G A24G A29C G36C G61A C70U G113A | -5.67
132 | A6C C40A C70G | -5.35
133 | A5U C70G U106A C114U | -5.21
134 | A6C C13A G48C C49G C85A U92C | -4.52
135 | A5G C13U A43U G71A C124U | -1.48
136 | A5G C114A | -1.2
137 | A5U G42A | -1.63
138 | A5U G19A C72G U112G | -4.06
139 | A6C C8A A121C | 1.45
140 | A5U C62U C72U | -0.208
141 | A5U C20A U33A A37G C49G G52A U78A A111U | -5.53
142 | A5G G45U G60A C101G U133G | -3.66
143 | A6C C8G G44C C64U U78C | -1.41
144 | A6C C76U C101G G122A C124U U129A | -2.42

Row | Variant | polymerase ribozyme fitness (log ratio)
145 | A5U C12U U21A A84G | -2.37
146 | A5G G35A U78A C101U | -3.77
147 | A5G C13U G42U C76A | -2.01
148 | A6C C12A A84G U92C U106G G113C | -5.99
149 | A5U G110U U130A | -2.41
150 | A5U U9A A18U | -2.06
151 | A5G U109G C123G U130C | -4.03
152 | A5U A16C G57C G69A G93A | -6.66
153 | A6C C72U A105C U131C | -2.59
154 | A5U U126A | -0.78
155 | A5U U14G A83C A111C | -2.47
156 | A5U C62G A100U G120U | -3.08
157 | A5U C22G | -3.43
158 | A5G U59G G63U C73G A111C | -6
159 | A5U A27G G44U A118U | -4.64
160 | A5U G42U A46G C72U U78G | -1.17
161 | A5U A41U C64U G120C | -1.19
162 | A5G C88A G107A C114U | -3.65
163 | A5U C15G A43G U54G C114U G122U | -6.04
164 | A6C C73U C89U G113A | -2.7
165 | A5U C12A U21G C49A C72G | -2.35
166 | A5G C13U C70U C94G | -1.73
167 | A5U A43G G48A C62U A103U G110U | -6.17
